The values below come from the supplement of paper PMC6379048.

What all share (assay): Kd (EC50 corrected by depletion factor)
In one series the target is DHX15 (UniProt O43143). The procedure:
(§1)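 Competition-binding assay: HEK293-FT cell lysate (2.5 mg protein) pre-incubated 1 h at 4°C with free motif-containing RNA oligos (0 to 30 µM, 12 doses), then pulled down with the same 5'-amino-C6 RNA oligos immobilised on NHS-Sepharose beads (30 min, 4°C). Bound proteins were quantified by label-free LC-MS/MS and normalised to the water control. EC50 came from a four-parameter log-logistic fit; Kd = EC50 x depletion factor. Random/reversed control probes are dropped.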

In the next series the target is T1, DIS3L2 (UniProt Q8IYB7).
T1 sequence: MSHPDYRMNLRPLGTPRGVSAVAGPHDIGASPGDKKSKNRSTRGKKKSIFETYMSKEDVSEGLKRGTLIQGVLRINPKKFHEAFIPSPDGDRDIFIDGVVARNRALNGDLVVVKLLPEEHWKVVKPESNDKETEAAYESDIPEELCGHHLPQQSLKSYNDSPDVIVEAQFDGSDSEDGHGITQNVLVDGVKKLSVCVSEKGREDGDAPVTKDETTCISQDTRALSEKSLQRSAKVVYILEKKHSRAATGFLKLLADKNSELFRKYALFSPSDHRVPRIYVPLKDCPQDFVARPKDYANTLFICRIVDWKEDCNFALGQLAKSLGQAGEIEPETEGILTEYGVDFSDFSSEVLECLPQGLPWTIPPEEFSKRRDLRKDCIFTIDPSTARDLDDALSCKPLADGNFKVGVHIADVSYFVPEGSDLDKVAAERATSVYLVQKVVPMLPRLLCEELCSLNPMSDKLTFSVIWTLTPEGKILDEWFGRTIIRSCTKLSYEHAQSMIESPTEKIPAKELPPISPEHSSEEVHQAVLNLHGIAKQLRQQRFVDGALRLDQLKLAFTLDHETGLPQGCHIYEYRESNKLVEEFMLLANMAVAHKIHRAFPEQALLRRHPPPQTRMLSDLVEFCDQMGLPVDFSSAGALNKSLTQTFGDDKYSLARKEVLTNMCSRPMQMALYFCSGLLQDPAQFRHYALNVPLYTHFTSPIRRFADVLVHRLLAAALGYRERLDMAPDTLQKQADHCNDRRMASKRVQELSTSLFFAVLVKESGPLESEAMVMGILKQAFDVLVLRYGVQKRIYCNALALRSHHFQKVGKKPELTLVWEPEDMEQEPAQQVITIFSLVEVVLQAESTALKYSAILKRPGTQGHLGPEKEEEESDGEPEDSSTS
The procedure: as §1

The next series addresses T2, SSB (UniProt P05455).
T2 sequence: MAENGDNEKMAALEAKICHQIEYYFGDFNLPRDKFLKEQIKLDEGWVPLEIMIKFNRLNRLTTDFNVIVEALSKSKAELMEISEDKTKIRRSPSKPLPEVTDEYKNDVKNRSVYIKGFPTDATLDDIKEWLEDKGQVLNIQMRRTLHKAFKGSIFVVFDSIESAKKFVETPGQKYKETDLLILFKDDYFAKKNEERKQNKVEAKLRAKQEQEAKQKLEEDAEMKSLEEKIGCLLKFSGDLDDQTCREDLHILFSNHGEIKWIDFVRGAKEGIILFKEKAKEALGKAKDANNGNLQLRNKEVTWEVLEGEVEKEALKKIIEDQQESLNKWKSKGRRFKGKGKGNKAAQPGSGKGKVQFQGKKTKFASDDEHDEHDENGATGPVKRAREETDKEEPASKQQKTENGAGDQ
Here is the method: as §1

For another series, the target named is T3, HNRNPUL1 (UniProt Q9BUJ2).
T3 sequence: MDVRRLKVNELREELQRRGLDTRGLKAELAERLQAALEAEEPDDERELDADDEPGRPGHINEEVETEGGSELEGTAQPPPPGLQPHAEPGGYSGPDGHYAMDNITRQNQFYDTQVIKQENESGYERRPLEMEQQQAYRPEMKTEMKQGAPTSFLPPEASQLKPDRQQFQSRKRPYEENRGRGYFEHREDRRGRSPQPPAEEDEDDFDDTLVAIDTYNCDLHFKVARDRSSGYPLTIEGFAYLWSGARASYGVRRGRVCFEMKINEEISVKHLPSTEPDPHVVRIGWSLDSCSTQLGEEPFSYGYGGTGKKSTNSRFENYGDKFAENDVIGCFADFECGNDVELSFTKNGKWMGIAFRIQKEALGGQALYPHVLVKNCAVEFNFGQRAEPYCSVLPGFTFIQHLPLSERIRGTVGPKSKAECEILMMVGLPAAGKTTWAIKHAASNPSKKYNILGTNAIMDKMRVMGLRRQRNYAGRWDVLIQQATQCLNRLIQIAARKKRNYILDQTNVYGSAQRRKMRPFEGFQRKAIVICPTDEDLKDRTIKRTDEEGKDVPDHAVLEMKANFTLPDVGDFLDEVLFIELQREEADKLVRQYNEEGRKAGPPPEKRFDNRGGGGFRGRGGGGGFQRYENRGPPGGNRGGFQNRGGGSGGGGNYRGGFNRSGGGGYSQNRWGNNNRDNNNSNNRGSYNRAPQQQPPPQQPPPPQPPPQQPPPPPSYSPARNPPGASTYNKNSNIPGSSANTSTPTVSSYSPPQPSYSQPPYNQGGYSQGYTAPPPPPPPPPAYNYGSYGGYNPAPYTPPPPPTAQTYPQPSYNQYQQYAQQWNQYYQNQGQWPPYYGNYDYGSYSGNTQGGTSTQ
The procedure:
as §1

Sequence of DHX15 (O43143 whole entry): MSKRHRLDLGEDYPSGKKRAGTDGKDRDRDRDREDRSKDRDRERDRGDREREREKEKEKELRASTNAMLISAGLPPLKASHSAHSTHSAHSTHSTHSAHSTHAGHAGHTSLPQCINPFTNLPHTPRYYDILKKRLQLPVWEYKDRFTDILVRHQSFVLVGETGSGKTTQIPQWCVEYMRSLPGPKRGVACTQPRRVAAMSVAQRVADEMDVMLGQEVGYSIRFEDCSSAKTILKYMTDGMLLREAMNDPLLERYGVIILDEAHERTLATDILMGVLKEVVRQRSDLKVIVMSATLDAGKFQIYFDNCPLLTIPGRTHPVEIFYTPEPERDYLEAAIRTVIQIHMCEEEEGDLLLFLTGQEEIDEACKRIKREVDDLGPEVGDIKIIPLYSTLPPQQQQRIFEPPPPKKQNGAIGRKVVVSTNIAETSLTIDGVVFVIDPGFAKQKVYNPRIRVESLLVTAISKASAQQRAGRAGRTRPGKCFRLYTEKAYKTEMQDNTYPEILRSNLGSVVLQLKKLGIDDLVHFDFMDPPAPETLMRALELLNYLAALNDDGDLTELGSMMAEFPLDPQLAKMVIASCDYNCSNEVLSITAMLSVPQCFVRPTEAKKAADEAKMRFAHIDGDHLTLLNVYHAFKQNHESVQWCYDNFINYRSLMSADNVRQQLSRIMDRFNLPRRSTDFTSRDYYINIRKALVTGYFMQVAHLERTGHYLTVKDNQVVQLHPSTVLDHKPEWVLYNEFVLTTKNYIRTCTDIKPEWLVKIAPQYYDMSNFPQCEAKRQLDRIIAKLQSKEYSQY

Regarding AAUAAA, the Kd with DHX15 amounted to 446 nM; with DIS3L2 it was 383 nM; in the series with SSB, 365 nM; in the series with HNRNPUL1, 308 nM.
Consider CUGUCCU, for which the Kd in the series with DHX15 was 358 nM; in the series with DIS3L2, 774 nM; with SSB, 1060 nM; with HNRNPUL1, 35.7 nM.
In the same order, the values of UAUUUAU are 157 nM, 290 nM, 289 nM and 427 nM.
